Experimental data taken from patent US20250129169A1 (Stanford University, published 2025).

Key:
human IFNAR2 ECD = target: T1, human IFNAR2 ECD (human, UniProt P48551 27-243); test: SPR; human IFNAR2 ECD immobilized, VHH as analyte; binding constants from kinetic fits
T1 construct: extracellular domain; Immobilized for SPR under the same conditions as for the IL-2 specific VHHs
T1 sequence (looked up): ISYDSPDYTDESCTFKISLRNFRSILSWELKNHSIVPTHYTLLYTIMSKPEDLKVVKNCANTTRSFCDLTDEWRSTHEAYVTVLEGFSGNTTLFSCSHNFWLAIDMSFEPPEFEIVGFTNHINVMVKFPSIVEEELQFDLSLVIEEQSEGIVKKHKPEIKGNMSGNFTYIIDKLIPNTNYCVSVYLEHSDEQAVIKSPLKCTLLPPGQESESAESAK
Protocol: FIGS. 8A-8D depict signaling kinetics and gene expression driven by Type I Interferon surrogate ligands. (A) SPR sensorgrams displaying dose-dependent binding of IFNAR2 VHHs to immobilized human IFNAR2 ECD. SPR experiments were performed using the same conditions as for IL-2 specific VHHs. Binding constants were determined from kinetic fitting and summarized in (B). (C) qRT-PCR analysis of mRNA level of indicated genes in human primary bronchial/tracheal epithelial cells treated with 10 nM surrogate ligands or IFNω for 8 hr. (D) qRT-PCR analysis of mRNA level of indicated genes in PBMCs treated with 10 nM surrogate ligands or IFNω for 8 hr.

Human IL-2Rβ ECD [1] = target: T2, Human IL-2Rβ ECD (human, UniProt P14784 27-240, biotinylated (site not stated)); test: SPR, steady-state binding affinity (drawn table)
T2 construct: extracellular domain; Biotinylated and held on a streptavidin chip for SPR; also called biotinylated human IL-2Rβ ECD
T2 sequence (looked up): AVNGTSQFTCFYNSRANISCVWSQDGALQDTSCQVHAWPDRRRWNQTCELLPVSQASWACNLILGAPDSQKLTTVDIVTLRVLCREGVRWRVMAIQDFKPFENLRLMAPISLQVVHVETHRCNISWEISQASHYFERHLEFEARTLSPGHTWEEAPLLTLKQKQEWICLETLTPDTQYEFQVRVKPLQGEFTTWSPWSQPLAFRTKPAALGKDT
Protocol: (§1) FIGS. 2A-2H show data on SPR validation of IL-2Rβ- and γc-VHHs and agonist screening in YT-1 cells. (A) Biotinylated human IL-2Rβ ECD was immobilized on a streptavidin (SA) sensor chip, and varying concentrations of IL-2Rβ VHH were applied to determine binding parameters using SPR. Sensorgrams are shown on the left, and steady state binding is plotted on the right. Binding affinities (KD) were determined by fitting to steady state response values. (B) Biotinylated human γC ECD was immobilized on a SA chip, and varying concentrations of γc VHH were flowed over the chip to determine binding. […] (C) Steady-state binding affinities between VHH/scFv and IL-2R, as determined by SPR. Values for scFv affinities are derived from patent US20160367664A1 (Wang et al., 2016). (D) Table of pSTAT5 Eₘₐₓ values for the indicated VHH pairings. (E) Tuning IL-2 activity via generation of acid-base VHH zipper pairings. (F) Tuning IL-2 activity via generation of 2:1 β:γc or γc:β stoichiometries. VHH binding modules are linked together in a tripartite (β-γc-β or γc-β-γc) manner. Graph axes are represented as in (E). (G) Dose-response relationship of pSTAT5 geometric mean flurorescence intensities (gMFI) of selected agonists. (H) Corresponding histograms showing STAT5 activity in YT-1 cells treated with human IL-2 vs. IL-2 surrogate agonists at saturating concentration.

Human IL-2Rβ ECD [2] = target: T2, Human IL-2Rβ ECD; test: SPR; biotinylated human IL-2Rβ ECD on streptavidin chip, VHH as analyte; KD from fit to steady-state responses [Cont.]
Protocol: as §1

human IL-10Rβ ECD = target: T3, human IL-10Rβ ECD (human, UniProt Q08334 20-220); test: SPR, kinetic fit, immobilized human IL-10Rβ ECD
T3 construct: extracellular domain; Immobilized for SPR under the same conditions as for the IL-2 specific VHHs
T3 sequence (looked up): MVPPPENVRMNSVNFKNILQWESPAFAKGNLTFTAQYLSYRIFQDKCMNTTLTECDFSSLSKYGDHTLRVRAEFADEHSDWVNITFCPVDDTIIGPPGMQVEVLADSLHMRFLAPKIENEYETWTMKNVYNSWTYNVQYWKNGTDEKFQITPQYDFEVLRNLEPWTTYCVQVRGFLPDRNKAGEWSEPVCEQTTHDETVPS
Protocol: (A) SPR sensorgrams displaying dose-dependent binding of IL-10Rβ VHHs to immobilized human IL-10Rβ ECD. SPR experiments were performed using the same conditions as for IL-2 specific VHHs. Binding constants were determined from kinetic fitting and summarized in (B).

[3] = target: IL-2Rβ/γc receptor heterodimer on cells (human) (UniProt P14784); test: cell-based or functional assay
IL-2Rβ/γc receptor heterodimer on cells (human), sequence (P31785 23-369, one chain of several): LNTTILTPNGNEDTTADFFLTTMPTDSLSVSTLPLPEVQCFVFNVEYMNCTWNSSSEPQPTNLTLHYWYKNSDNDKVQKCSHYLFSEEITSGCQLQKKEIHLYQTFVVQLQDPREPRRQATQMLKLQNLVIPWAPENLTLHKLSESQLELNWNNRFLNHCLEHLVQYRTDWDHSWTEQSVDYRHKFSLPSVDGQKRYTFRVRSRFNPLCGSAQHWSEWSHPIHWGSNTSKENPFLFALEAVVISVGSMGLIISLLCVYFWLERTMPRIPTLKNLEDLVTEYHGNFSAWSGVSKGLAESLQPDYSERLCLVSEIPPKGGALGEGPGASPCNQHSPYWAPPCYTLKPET

B1: IFNAR2-VHH1 (VHH)
VHH: QVQLQESGGGSVQPGGSLRLSCAASGFTFSNYIMSWVRQAPGKGLEWVSAISGGGNTYYTDSVKGRFTISRDNAKNTLYLQLNSLKTEDTAMYYCAQNWWVAGRSPNPPGQGTQVTVSS
notes: Member of the group m12 (IFNAR2 VHHs); also called VHH1 (IFNAR2 VHH)
Kd (human IFNAR2 ECD): 0.31 nM

B2: 2Rβ-VHH3 (VHH)
VHH: QVQLQESGGGSVQAGGSLRLSCTASGFTFDDEDMGWYRQAPGNECELVSSIGSLGRRYYADSVKDRFAISQDNAKNTVYLQMNSLKPEDTAVYYCAATKGGSWLDSILASCQGAFGYWGQGTQVTVSS
Kd (Human IL-2Rβ ECD [1]): 20 nM
Kd (Human IL-2Rβ ECD [2]): 20.2 nM

B3: IFNAR2-VHH3 (VHH)
VHH: QVQLQESGGGLVQPGGSLRLSCAASEFTFSEYSMKWVRQPPGKGLEWVSTISPSGGTTRYAESVKGRFTISRDNAKNTLYLQLNSLKTEDTAMYYCSVADWSVTQRRGQGTQVTVSS
notes: Member of the group m12 (IFNAR2 VHHs); also called VHH3 (IFNAR2 VHH)
Kd (human IFNAR2 ECD): 0.21 nM

B4: 2Rβ-VHH6 (VHH)
VHH: QVQLQESGGGSVQAGGSLRLSCAASSYTISSVCMGWFRQAPGKEREGVAGIAPDGSTGYGDSVKGRFTISKDNAKNTLYLQMNSLKPEDTAMYYCAAASPGRCFLPRTALEPALYYNWGQGTQVTVSS
notes: also called IL-2Rβ-VHH6
Kd (Human IL-2Rβ ECD [1]): 25 nM
Kd (Human IL-2Rβ ECD [2]): 25 nM

B5: IFNAR2-VHH2 (VHH)
VHH: QVQLQESGGGLVQPGGSLRLSCAASGFTFSDYIMTWVRQAPGKGLEWVSSINNGGRSTYYADSVKGRFTISRDNAKNTLYLQLNSLKIEDTAMYYCARDVTCWGARTGCRVSGGTQVTVSS
notes: Member of the group m12 (IFNAR2 VHHs); also called VHH2 (IFNAR2 VHH)
Kd (human IFNAR2 ECD): 0.78 nM

B6: 10Rβ-VHH1 (VHH)
VHH: QVQLQESGGGSVQAGGSLRLSCAARYTYSTYCMGWFRQAPGKEREGVAAIDSDGSTSYADSVKGRFTISKDNAKNTLYLQMNSLKPEDTAMYYCASDADCDLGGSWSTRGQGTQVTVSS
notes: member of the group m13; also called VHH1 (IL-10Rβ VHH)
Kd (human IL-10Rβ ECD): 1.6 nM

B7: IFNAR2-VHH10 (VHH)
VHH: QVQLQESGGGLVQPGGSLRLSCAASGFTFSNHIMSWVRQAPGKGLEWVSAINSGGGSTYYRDSVKGRFTISRDNAKNTLYLQLNSLKTEDTAMYYCAKDWWRYGSDKPPGQGTQVTVSS
notes: Member of the group m12 (IFNAR2 VHHs); also called VHH10 (IFNAR2 VHH)
Kd (human IFNAR2 ECD): 0.33 nM

B8: 10Rβ-VHH4 (VHH)
VHH: QVQLQESGGGSVQAGGSLRLSCAASGYTYSSYCMGWFRQASGKEREGVATIDSDGSTRYADSVKGRFTISKDNAKNTLYLQMNSLKPEDTAMYYCAADLADCAPSIYSDYDVAHWGQGTQVTVSS
notes: member of the group m13; also called VHH4 (IL-10Rβ VHH)
Kd (human IL-10Rβ ECD): 2.2 nM

B9: MY173-F (bispecific antibody, not shown: small tags and cut ends)
chain: QVQLQESGGGSVQAGGSLRLSCAASSYTISSVCMGWFRQAPGKEREGVAGIAPDGSTGYGDSVKGRFTISKDNAKNTLYLQMNSLKPEDTAMYYCAAASPGRCFLPRTALEPALYYNWGQGTQVTVSSSFQVQLQESGGGSVQAGGSLRLSCAASGYTYRDYYMGWFRQAPGREREGVASIYTRGSREGSTRYSSSVEGRFTITLDTAKNTLYLQMNSLKPEDTAMYYCAADDRTWLPRVQLGGPRENEYNYWGQGTQVTVSS
pS6 activity in CD8+ T and NK cells, relative to IL-2 [3]: 50%
pSTAT5 activity in CD8+ T and NK cells, relative to IL-2 [3]: 70 to 100%

B10: IFNAR2-VHH5 (VHH)
VHH: QVQLQESGGGLVQPGGSLTLSCAASGFTFRNHIMSWVRQAPGKGLEWVSAISSGGGNTYYADSVKGRFTISRDNAKSTLYLQLNSLKTEDTAMYYCTKDWARPPYSDFLAPQAQGTQVTVSS
notes: Member of the group m12 (IFNAR2 VHHs); also called VHH5 (IFNAR2 VHH)
Kd (human IFNAR2 ECD): 0.23 nM

B11: MY193-R (bispecific antibody, not shown: small tags and cut ends)
chain: QVQLQESGPGLVKPSETLSLTCTVSGGSISSSSYYWGWIRQPPGKGLEWIGSIYYSGSTYYNPSLKSRVTISVDTSKNQFSLKLSSVTAADTAVYYCAGDILTGYALDYWGQGTLVTVSSGGGGSGGGGSGGGGSSYELTQPPSMSVSPGQTARITCSGDALPKQFAFWYQQKPGQAPVLVIYKDTERPSGIPERFSGSSSGTTVTLTITGVQAEDEADYYCQSPDSSGTVEVFGGGTKLTVLGGGGTSASQVQLQESGGGSVQAGGSLRLSCTASGFTFDDEDMGWYRQAPGNECELVSSIGSLGRRYYADSVKDRFAISQDNAKNTVYLQMNSLKPEDTAVYYCAATKGGSWLDSILASCQGAFGYWGQGTQVTVSS
pSTAT1/3 activity in NK cells, relative to hIL-2 [3]: 3%
pSTAT1 or pSTAT3 activity in CD8+ T cells, relative to hIL-2 [3]: 25%
pSTAT5 activity in CD8+ T cells, relative to hIL-2 [3]: 90%
pSTAT5 activity in NK cells, relative to hIL-2 [3]: 45%

B12: 2Rβ-VHH4 (VHH)
VHH: QVQLQESGGGSVQAGGSLRLSCAASGSTSCSSVMRWYRQAPGKEREFVSSINSDRRTVYADSVKGRFTISQDNAKSTLYLQMNSLKAEDTATYYCQRELYGDSWCQGNYWGQGTQVTVSS
Kd (Human IL-2Rβ ECD [1]): 123 nM
Kd (Human IL-2Rβ ECD [2]): 123 nM

B13: IFNAR2-VHH8 (VHH)
VHH: QVQLQESGGGSVQAGGSLRLSCAASGFYGTYSMGWFRQAPGKEREGVAHIESDGSTRYADSMKGRFTVSKDNAKKILYLQMNSLKPEDTAVYYCAADPRPYFRTWYERARYGGQGTQVTVSS
notes: Member of the group m12 (IFNAR2 VHHs); also called VHH8 (IFNAR2 VHH)
Kd (human IFNAR2 ECD): 0.54 nM

B14: 10Rβ-VHH3 (VHH)
VHH: QVQLQESGGGSVQVGGSLRLSCAASGYTYSNYCMGWFRQAPGKEREGVATIDGDGSTRYADSVKGRFTISKDNAKNTLYLQMHSLKPEDTAMYYCAADFALCDPTVVAHTDFGYWGQGTQVTVSS
notes: member of the group m13; also called VHH3 (IL-10Rβ VHH)
Kd (human IL-10Rβ ECD): 2.5 nM

B15: 10Rβ-VHH2 (VHH)
VHH: QVQLQESGGGSVQTGGSLRLSCAASQVNMNSVGWFRQAPGKAREGVATISPSGGATYYTDSVKGRFTISRDNAKNTVYLQMNSLNAEDTAMYYCAADGGRDWWLLRPQTFSYWGQGTQVTVSS
notes: member of the group m13; also called VHH2 (IL-10Rβ VHH)
Kd (human IL-10Rβ ECD): 2.2 nM

B16: 2Rβ-VHH1 (VHH)
VHH: QVQLQESGGGSVQAGGSLRLSCVTSGYTYSSANMAWFRQAPGKEREGVAIITPSGRATTYADSVKGRFTISRDNAANTLYLQMNSLKPEDTAMYYCAADTPPYSGLWYAERTYNYWGQGTQVTVSS
notes: also called IL-2Rβ-specific VHH clone 1
Kd (Human IL-2Rβ ECD [1]): 11 nM
Kd (Human IL-2Rβ ECD [2]): 10.9 nM

B17: 10Rβ-VHH5 (VHH)
VHH: QVQLQESGGGSVQAGGSLRLSCAASGYTYSSYCMGWFRQAPGKEREGVAAIDSDGSTSYADSVKGRFTISKDNAKNTLYLQMNSLKPEDTAMYYCAAEPWCTSQGRGRESAEFGYWGQGTQVTVSS
notes: member of the group m13; also called VHH5 (IL-10Rβ VHH)
Kd (human IL-10Rβ ECD): 1.7 nM
